{"source": "the Human Domainome abundance scans (Beltran et al. 2025)", "parents": {"B1": {"name": "PDZ and LIM domain protein 2, residues 284 to 339; numbered along this chain, Q96JY6 (parent)", "chain": "HTCEKCSTSIANQAVRIQEGRYRHPGCYTCADCGLNLKMRGHFWVGDELYCEKHAR"}}, "note": "± gives the uncertainty stated by the source."}
{"variants_of": "B1", "test": "abundance fitness (aPCA) (normalised: wild type 0, dead -1); higher = more abundant; growth selection in yeast, the domain comes from the species named", "settings": "Homo sapiens"}
{"variant": "HTCEKCSTSIANQAKRIQEGRYRHPGCYTCADCGLNLKMRGHFWVGDELYCEKHAR", "note": "[V15K]", "abundance fitness": "0.052 ± 0.13"}
{"variant": "HTCEKCSTSIANQAHRIQEGRYRHPGCYTCADCGLNLKMRGHFWVGDELYCEKHAR", "note": "[V15H]", "abundance fitness": "-0.099 ± 0.19"}
{"variant": "HTCEKCSTSIANQADRIQEGRYRHPGCYTCADCGLNLKMRGHFWVGDELYCEKHAR", "note": "[V15D]", "abundance fitness": "-0.115 ± 0.11"}
{"variant": "HTCEKCSTSIANQAVRIQEGRYRHPGCYTMADCGLNLKMRGHFWVGDELYCEKHAR", "note": "[C30M]", "abundance fitness": "-0.712 ± 0.13"}
{"variant": "HTCEKCSTSIANQAVRIQEGRYRHPGCYTAADCGLNLKMRGHFWVGDELYCEKHAR", "note": "[C30A]", "abundance fitness": "-1.01 ± 0.082"}
{"variant": "HTCEKCSTSIANQAVRIQEGRYRHPGCYTVADCGLNLKMRGHFWVGDELYCEKHAR", "note": "[C30V]", "abundance fitness": "-0.789 ± 0.19"}
{"variant": "HTCEKCSTSIANQAVRIQEGRYRHPGCYTIADCGLNLKMRGHFWVGDELYCEKHAR", "note": "[C30I]", "abundance fitness": "-1.06 ± 0.36"}
{"variant": "HTCEKCSTSIANQAVRIQEGRYRHPGCYTCWDCGLNLKMRGHFWVGDELYCEKHAR", "note": "[A31W]", "abundance fitness": "-0.052 ± 0.12"}
{"variant": "HTCPKCSTSIANQAVRIQEGRYRHPGCYTCADCGLNLKMRGHFWVGDELYCEKHAR", "note": "[E4P]", "abundance fitness": "-0.592 ± 0.065"}
{"variant": "HTCHKCSTSIANQAVRIQEGRYRHPGCYTCADCGLNLKMRGHFWVGDELYCEKHAR", "note": "[E4H]", "abundance fitness": "0.069 ± 0.15"}
{"variant": "HTCEKCSTSIANQAVRIQVGRYRHPGCYTCADCGLNLKMRGHFWVGDELYCEKHAR", "note": "[E19V]", "abundance fitness": "-0.495 ± 0.093"}
{"variant": "HTCEKCSTSIANQAVRIQQGRYRHPGCYTCADCGLNLKMRGHFWVGDELYCEKHAR", "note": "[E19Q]", "abundance fitness": "-0.071 ± 0.13"}
{"variant": "HTCEKCSTSIANQAVRIQLGRYRHPGCYTCADCGLNLKMRGHFWVGDELYCEKHAR", "note": "[E19L]", "abundance fitness": "-0.237 ± 0.064"}
{"variant": "HTCEKCSTSIANQAVRIQEGRYRHPGCYTCADCGLNLKMRGHFWVGDEHYCEKHAR", "note": "[L49H]", "abundance fitness": "-0.343 ± 0.062"}
{"variant": "HTCEKCSTSIANQAVRIQEGRYRHPGCYTCADCGLNLKMRGHFWVGDEPYCEKHAR", "note": "[L49P]", "abundance fitness": "-0.154 ± 0.12"}
{"variant": "HTCEKCSTSIANQAVRIQEGRYRHPGCYTCADCGLNLKMRGHFWVGDEGYCEKHAR", "note": "[L49G]", "abundance fitness": "-0.286 ± 0.068"}
{"variant": "HTCEKCSTSIANQAVRIQEGRYRHPGCYTCADCGLNLKMRGHFWVGDEIYCEKHAR", "note": "[L49I]", "abundance fitness": "0.117 ± 0.18"}
{"variant": "HTCEKCSTSIANQRVRIQEGRYRHPGCYTCADCGLNLKMRGHFWVGDELYCEKHAR", "note": "[A14R]", "abundance fitness": "-0.466 ± 0.071"}
{"variant": "HTCEKCSTSIANQAVRIQEGRYRHFGCYTCADCGLNLKMRGHFWVGDELYCEKHAR", "note": "[P25F]", "abundance fitness": "-0.492 ± 0.1"}
{"variant": "HTCEKCSTSIANQAVRIQEGRYRHPGCYTCADCGENLKMRGHFWVGDELYCEKHAR", "note": "[L35E]", "abundance fitness": "0.086 ± 0.086"}
{"variant": "HTCEKCSTSIANQAVRIQEGRYRHPGCYTCADCGVNLKMRGHFWVGDELYCEKHAR", "note": "[L35V]", "abundance fitness": "0.053 ± 0.064"}
{"variant": "HTCEKCSTSIANWAVRIQEGRYRHPGCYTCADCGLNLKMRGHFWVGDELYCEKHAR", "note": "[Q13W]", "abundance fitness": "-1.19 ± 0.19"}
{"variant": "HTCEKDSTSIANQAVRIQEGRYRHPGCYTCADCGLNLKMRGHFWVGDELYCEKHAR", "note": "[C6D]", "abundance fitness": "-0.15 ± 0.22"}
{"variant": "HTCEKCSTSIANQAVRIQEGRARHPGCYTCADCGLNLKMRGHFWVGDELYCEKHAR", "note": "[Y22A]", "abundance fitness": "-0.269 ± 0.09"}
{"variant": "HTCEKCSTSIANQAVRIQEGRYRHPGCYTCADCGLNLKMRGAFWVGDELYCEKHAR", "note": "[H42A]", "abundance fitness": "-0.147 ± 0.076"}
{"variant": "HTCEKCSTSIANQAVRIQEGRYRHPGCYTCADCGLNLKMRGSFWVGDELYCEKHAR", "note": "[H42S]", "abundance fitness": "0.022 ± 0.065"}
{"variant": "HTCEKCSTSIANQAVRIQEGRYRHPGCYTCADCGLNLKMRGEFWVGDELYCEKHAR", "note": "[H42E]", "abundance fitness": "0.16 ± 0.08"}
{"variant": "HTCEKCSTSIANQAVRIQEGRYRHPGCYTCADYGLNLKMRGHFWVGDELYCEKHAR", "note": "[C33Y]", "abundance fitness": "-0.823 ± 0.15"}
{"variant": "HTCEKCSTSIANQAVRIQEGRYRHPGCYTCADEGLNLKMRGHFWVGDELYCEKHAR", "note": "[C33E]", "abundance fitness": "-1.05 ± 0.18"}
{"variant": "HTCEKCSTSIANQAVRIQEGRYRHPGCYTCADDGLNLKMRGHFWVGDELYCEKHAR", "note": "[C33D]", "abundance fitness": "-0.695 ± 0.19"}
{"variant": "HTMEKCSTSIANQAVRIQEGRYRHPGCYTCADCGLNLKMRGHFWVGDELYCEKHAR", "note": "[C3M]", "abundance fitness": "-0.856 ± 0.096"}
{"variant": "HTTEKCSTSIANQAVRIQEGRYRHPGCYTCADCGLNLKMRGHFWVGDELYCEKHAR", "note": "[C3T]", "abundance fitness": "-0.586 ± 0.09"}
{"variant": "HTCEKCSTSIANQAVREQEGRYRHPGCYTCADCGLNLKMRGHFWVGDELYCEKHAR", "note": "[I17E]", "abundance fitness": "-0.325 ± 0.11"}
{"variant": "HTCEKCSTSIANQAVRIQEGRYRHPGCYTCADCGLNLKMRGHFWWGDELYCEKHAR", "note": "[V45W]", "abundance fitness": "-0.116 ± 0.094"}
{"variant": "HTCEKCSTSIANQAVRIQEGRYRHPGCYTCADCGLNLKMRGHFWRGDELYCEKHAR", "note": "[V45R]", "abundance fitness": "0.108 ± 0.051"}
{"variant": "HTCEKCSNSIANQAVRIQEGRYRHPGCYTCADCGLNLKMRGHFWVGDELYCEKHAR", "note": "[T8N]", "abundance fitness": "0.221 ± 0.13"}
{"variant": "HTCEKCSSSIANQAVRIQEGRYRHPGCYTCADCGLNLKMRGHFWVGDELYCEKHAR", "note": "[T8S]", "abundance fitness": "0.139 ± 0.086"}
{"variant": "HDCEKCSTSIANQAVRIQEGRYRHPGCYTCADCGLNLKMRGHFWVGDELYCEKHAR", "note": "[T2D]", "abundance fitness": "-0.305 ± 0.31"}
{"variant": "HTCEKCSTSIANQAVRIQEGRYRHPGCYTCADCGLNLKMRGHFWVRDELYCEKHAR", "note": "[G46R]", "abundance fitness": "-0.031 ± 0.067"}
{"variant": "HTCEKCSTSIANQAVRIQEGRYRHPGCYTCADCGLNLKMRGHFWVVDELYCEKHAR", "note": "[G46V]", "abundance fitness": "-0.226 ± 0.081"}
{"variant": "HTCEKCSTSIANQAVRIQEGRYDHPGCYTCADCGLNLKMRGHFWVGDELYCEKHAR", "note": "[R23D]", "abundance fitness": "-0.486 ± 0.11"}
{"variant": "HTCEKCSTSIANQAVRIQEGRYEHPGCYTCADCGLNLKMRGHFWVGDELYCEKHAR", "note": "[R23E]", "abundance fitness": "-0.318 ± 0.14"}
{"variant": "HTCEKCSTSIANQAVRIQEGRYPHPGCYTCADCGLNLKMRGHFWVGDELYCEKHAR", "note": "[R23P]", "abundance fitness": "-0.111 ± 0.13"}
{"variant": "HTCEPCSTSIANQAVRIQEGRYRHPGCYTCADCGLNLKMRGHFWVGDELYCEKHAR", "note": "[K5P]", "abundance fitness": "-0.267 ± 0.16"}
{"variant": "HTCEQCSTSIANQAVRIQEGRYRHPGCYTCADCGLNLKMRGHFWVGDELYCEKHAR", "note": "[K5Q]", "abundance fitness": "0.165 ± 0.12"}
{"variant": "HTCETCSTSIANQAVRIQEGRYRHPGCYTCADCGLNLKMRGHFWVGDELYCEKHAR", "note": "[K5T]", "abundance fitness": "0.104 ± 0.13"}
{"variant": "HTCEKCSTSIANQAVRIQEGRYRHPGCYTCADCGLNLKMRGHFWVGDELYCEKHAL", "note": "[R56L]", "abundance fitness": "0.797 ± 0.18"}
